Results as given in patent US20230257473A1 (TENEOBIO, published 2023).
Each block holds one binder with its values, some of them ahead of it.

Experiments:
[1] = target: recombinant BCMA (R&D Systems, catalog no. 193-BC) (human) (UniProt Q02223); assay: competitive ELISA, plate-bound BCMA; Ab 0.200 ng/mL; competitor APRIL 62.50 ng/mL
[2] = target: recombinant BCMA (R&D Systems, catalog no. 193-BC) (human) (UniProt Q02223); assay: competitive ELISA, plate-bound BCMA; Ab 200.000 ng/mL; competitor APRIL 0.00 ng/mL
[3] = target: recombinant BCMA (R&D Systems, catalog no. 193-BC) (human) (UniProt Q02223); assay: competitive ELISA, plate-bound BCMA; Ab 2.000 ng/mL; competitor APRIL 7.81 ng/mL
[4] = target: BCMA on BCMA-expressing cells (H929 / NCI-H929, MM1.S, U266, Daudi) (human) (UniProt Q02223); assay: flow cytometry on MM1.S cells; antibody 100.000 ng/ml
[5] = target: recombinant BCMA (R&D Systems, catalog no. 193-BC) (human) (UniProt Q02223); assay: competitive ELISA, plate-bound BCMA; Ab 0.200 ng/mL; competitor APRIL 250.00 ng/mL
[6] = target: BCMA on BCMA-expressing cells (H929 / NCI-H929, MM1.S, U266, Daudi) (human) (UniProt Q02223); assay: flow cytometry on MM1.S cells; antibody 200.000 ng/ml
[7] = target: BCMA on BCMA-expressing cells (H929 / NCI-H929, MM1.S, U266, Daudi) (human) (UniProt Q02223); assay: flow cytometry on H929 cells; antibody 0.098 ng/ml
[8] = target: recombinant BCMA (R&D Systems, catalog no. 193-BC) (human) (UniProt Q02223); assay: competitive ELISA, plate-bound BCMA; Ab 2.000 ng/mL; competitor APRIL 62.50 ng/mL
[9] = target: BCMA on BCMA-expressing cells (H929 / NCI-H929, MM1.S, U266, Daudi) (human) (UniProt Q02223); assay: flow cytometry on MM1.S cells; antibody 1.560 ng/ml
[10] = target: recombinant BCMA (R&D Systems, catalog no. 193-BC) (human) (UniProt Q02223); assay: competitive ELISA, plate-bound BCMA; Ab 0.002 ng/mL; competitor APRIL 125.00 ng/mL
[11] = target: recombinant BCMA (R&D Systems, catalog no. 193-BC) (human) (UniProt Q02223); assay: competitive ELISA, plate-bound BCMA; Ab 0.002 ng/mL; competitor APRIL 7.81 ng/mL
[12] = target: recombinant BCMA (R&D Systems, catalog no. 193-BC) (human) (UniProt Q02223); assay: competitive ELISA, plate-bound BCMA; Ab 200.000 ng/mL; competitor APRIL 500.00 ng/mL
[13] = target: BCMA on BCMA-expressing cells (H929 / NCI-H929, MM1.S, U266, Daudi) (human) (UniProt Q02223); assay: flow cytometry on H929 cells; antibody 6.250 ng/ml
[14] = target: recombinant BCMA (R&D Systems, catalog no. 193-BC) (human) (UniProt Q02223); assay: competitive ELISA, plate-bound BCMA; Ab 20.000 ng/mL; competitor APRIL 125.00 ng/mL
[15] = target: BCMA on BCMA-expressing cells (H929 / NCI-H929, MM1.S, U266, Daudi) (human) (UniProt Q02223); assay: flow cytometry on MM1.S cells; antibody 50.000 ng/ml
[16] = target: recombinant BCMA (R&D Systems, catalog no. 193-BC) (human) (UniProt Q02223); assay: competitive ELISA, plate-bound BCMA; Ab 0.020 ng/mL; competitor APRIL 0.00 ng/mL
[17] = target: recombinant BCMA (R&D Systems, catalog no. 193-BC) (human) (UniProt Q02223); assay: competitive ELISA, plate-bound BCMA; Ab 0.200 ng/mL; competitor APRIL 125.00 ng/mL
[18] = target: recombinant BCMA (R&D Systems, catalog no. 193-BC) (human) (UniProt Q02223); assay: competitive ELISA, plate-bound BCMA; Ab 0.002 ng/mL; competitor APRIL 250.00 ng/mL
[19] = target: BCMA on BCMA-expressing cells (H929 / NCI-H929, MM1.S, U266, Daudi) (human) (UniProt Q02223); assay: flow cytometry on H929 cells; antibody 0.391 ng/ml
[20] = target: BCMA on BCMA-expressing cells (H929 / NCI-H929, MM1.S, U266, Daudi) (human) (UniProt Q02223); assay: flow cytometry on H929 cells; antibody 3.130 ng/ml
[21] = target: recombinant BCMA (R&D Systems, catalog no. 193-BC) (human) (UniProt Q02223); assay: competitive ELISA, plate-bound BCMA; Ab 2.000 ng/mL; competitor APRIL 15.63 ng/mL
[22] = target: recombinant BCMA (R&D Systems, catalog no. 193-BC) (human) (UniProt Q02223); assay: competitive ELISA, plate-bound BCMA; Ab 0.002 ng/mL; competitor APRIL 31.25 ng/mL
[23] = target: BCMA on BCMA-expressing cells (H929 / NCI-H929, MM1.S, U266, Daudi) (human) (UniProt Q02223); assay: flow cytometry on H929 cells; antibody 200.000 ng/ml
[24] = target: BCMA on BCMA-expressing cells (H929 / NCI-H929, MM1.S, U266, Daudi) (human) (UniProt Q02223); assay: flow cytometry on H929 cells; antibody 25.000 ng/ml
[25] = target: recombinant BCMA (R&D Systems, catalog no. 193-BC) (human) (UniProt Q02223); assay: competitive ELISA, plate-bound BCMA; Ab 20.000 ng/mL; competitor APRIL 0.00 ng/mL
[26] = target: recombinant BCMA (R&D Systems, catalog no. 193-BC) (human) (UniProt Q02223); assay: competitive ELISA, plate-bound BCMA; Ab 0.020 ng/mL; competitor APRIL 7.81 ng/mL

Chain of recombinant BCMA (R&D Systems, catalog no. 193-BC) (human) (Q02223 5-51 limits assumed): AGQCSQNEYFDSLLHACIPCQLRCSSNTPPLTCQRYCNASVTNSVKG
Chain of BCMA on BCMA-expressing cells (H929 / NCI-H929, MM1.S, U266, Daudi) (human) (Q02223 whole entry): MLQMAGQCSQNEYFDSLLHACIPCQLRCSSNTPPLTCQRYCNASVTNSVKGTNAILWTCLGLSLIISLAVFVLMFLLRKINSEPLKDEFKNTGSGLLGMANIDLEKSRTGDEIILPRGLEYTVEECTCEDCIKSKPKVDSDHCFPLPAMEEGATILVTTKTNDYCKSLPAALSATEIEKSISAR

- A450-A570 [1]: 0.0595
- A450-A570 [2]: 2.47
- A450-A570 [3]: 0.108
- MFI [4]: 4140
- A450-A570 [5]: 0.0614
- MFI [6]: 7340
- MFI [7]: 5070
- A450-A570 [8]: 0.098
- MFI [9]: 2030
- A450-A570 [10]: 0.0607
- A450-A570 [11]: 0.0602
- A450-A570 [12]: 1.41
- MFI [13]: 5220
- A450-A570 [14]: 0.637
- MFI [15]: 2930
- A450-A570 [16]: 0.057
- A450-A570 [17]: 0.0651
- A450-A570 [18]: 0.0607
- MFI [19]: 5040
- MFI [20]: 5140
- A450-A570 [21]: 0.107
- A450-A570 [22]: 0.0528
- MFI [23]: 52900
- MFI [24]: 6610
- A450-A570 [25]: 0.648
- A450-A570 [26]: 0.0578
B1: AntiX**BCMA_F7E_F7E (bispecific antibody, part only; not given: other chains of three-chain format, not shown: another chain or arm of the molecule)
tandem VH: QVQLVESGGGLVQPGGSLRLSCVASGFTFSSNAMSWVRQAPGKGLEWVSAISGSGDYTHYSDSVKGRFTISRDNSKNTLYLQMNSLRAEDTAVYYCAKEVPGGPLVDFDSRGQGTLVTVSSGGGGSGGGGSQVQLVESGGGLVQPGGSLRLSCVASGFTFSSNAMSWVRQAPGKGLEWVSAISGSGDYTHYSDSVKGRFTISRDNSKNTLYLQMNSLRAEDTAVYYCAKEVPGGPLVDFDSRGQGTLVTVSS

- A450-A570 [1]: 0.0631
- A450-A570 [2]: 2.44
- A450-A570 [3]: 0.0895
- MFI [4]: 2440
- A450-A570 [5]: 0.0615
- MFI [6]: 3180
- MFI [7]: 5060
- A450-A570 [8]: 0.0834
- MFI [9]: 2110
- A450-A570 [10]: 0.066
- A450-A570 [11]: 0.0607
- A450-A570 [12]: 0.482
- MFI [13]: 5240
- A450-A570 [14]: 0.203
- MFI [15]: 2180
- A450-A570 [16]: 0.063
- A450-A570 [17]: 0.0643
- A450-A570 [18]: 0.0647
- MFI [19]: 5030
- MFI [20]: 5170
- A450-A570 [21]: 0.0867
- A450-A570 [22]: 0.058
- MFI [23]: 14100
- MFI [24]: 5480
- A450-A570 [25]: 0.466
- A450-A570 [26]: 0.0631
B2: anti-BCMA heavy chain-only antibody (UniAb) with the VH of SEQ ID NO: 12 (antibody, V domains shown)
VH: QVQLVESGGGLVQPGGSLRLSCVASGFTFSSNAMSWVRQAPGKGLEWVSAISGSGDYTHYSDSVKGRFTISRDNSKNTLYLQMNSLRAEDTAVYYCAKEVPGGPLVDFDSRGQGTLVTVSS
notes: Heavy chain-only antibody from UniRat; also called Clone ID No: 316302
